Laboratory results: article PMC12657218, “The Panoptes system uses decoy cyclic nucleotides to defend against phage” (Nature, 2025)
Values belong to the molecule of their own block, whether it stands above or below them.

Experiments:
[1] = target: OptS from Klebsiella pneumoniae KP67 (minimal CRISPR polymerase, mCpol) (Klebsiella pneumoniae KP67); test: mass photometry; KpOptS at 50 nM in 20 mM HEPES pH 7.5, 250 mM KCl, room temperature; β-amylase as calibration standard
[2] = target: OptS from Klebsiella pneumoniae KP67 (minimal CRISPR polymerase, mCpol) (Klebsiella pneumoniae KP67); test: crystal structure; apo KpOptS, 1.75 Å, four copies in the asymmetric unit; crystals from 8% PEG 4000, hanging drop, room temperature
[3] = target: OptS from Klebsiella pneumoniae KP67 (minimal CRISPR polymerase, mCpol) (Klebsiella pneumoniae KP67); test: SEC; HiLoad 16/600 Superdex 200 pg, 20 mM HEPES pH 7.5, 250 mM KCl, 1 mM TCEP-KOH; elution volume compared with molecular weight standards
Acb2 = target: T1, Acb2 (Tequatrovirus T4, UniProt P13314); test: isothermal titration calorimetry; format: binding; details: read-out: apparent Kd
T1 construct: full-length, N-terminal 6xHis-hSUMO2 tag cleaved with hSENP2; expressed in E. coli
T1 sequence (P13314 1-88): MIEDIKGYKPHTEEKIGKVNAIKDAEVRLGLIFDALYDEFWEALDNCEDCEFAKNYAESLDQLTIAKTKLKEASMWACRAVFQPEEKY

VnOptS = target: T2, VnOptS (Vibrio navarrensis, UniProt A0A099LXT1); format: biochemical; details: MnCl2 1 mM, MgSO4 10 mM, 20 mM HEPES-KOH pH 7.4, 100 mM NaCl; with ATP, GTP, UTP, CTP; from ATP and GTP
T2 construct: gene EA26_14275; N-terminal His6 tag with or without hSUMO2; expressed in E. coli

stoichiometry N [1]: 4
stoichiometry N [2]: 4
stoichiometry N [3]: > 2
Molecule: OptS from Klebsiella pneumoniae KP67 (minimal CRISPR polymerase, mCpol) (enzyme)

Molecule: Nc1ncnc2c1ncn2[C@@H]1O[C@@H]2COP(=O)(O)O[C@@H]3[C@H](O)[C@@H](COP(=O)(O)O[C@H]2[C@H]1O)O[C@H]3n1cnc2c(N)ncnc21 [2′,3′-c-di-AMP]
Kd (Acb2): ~62 nM

Molecule: Nc1nc2c(ncn2[C@@H]2O[C@@H]3COP(=O)(O)O[C@@H]4[C@H](O)[C@@H](COP(=O)(O)O[C@H]3[C@H]2O)O[C@H]4n2cnc3c(N)ncnc32)c(=O)[nH]1 [3′,2′-cGAMP]
HPLC and MS of products (VnOptS): The most abundant product of the in vitro reactions was a linkage isomer of cyclic GMP-AMP
